Measured values published in patent US20230390362A1, “USE OF TRIGONAL AGONIST HAVING ACTIVITIES TO ALL OF GLUCAGON, GLP-1, AND GIP RECEPTORS IN TREATMENT OF SEQUELAE FOLLOWING RESPIRATORY INFECTIOUS DISEASES” (HANMI PHARM. CO., LTD., priority 2020, published 2023).
Positions of bridges follow the written chain, without caps; N, C: chain ends. Non-standard residues stand in square brackets, D forms with d. No end group written: not given here. *: point of attachment. Acetyl(2-(4-imidazolyl)) = O=C(Cc1c[nH]cn1)*; Aib = CC(C)(N)C(=O)O

T1: human GIP receptor (human, UniProt P48546 22-466)
T1 sequence (looked up): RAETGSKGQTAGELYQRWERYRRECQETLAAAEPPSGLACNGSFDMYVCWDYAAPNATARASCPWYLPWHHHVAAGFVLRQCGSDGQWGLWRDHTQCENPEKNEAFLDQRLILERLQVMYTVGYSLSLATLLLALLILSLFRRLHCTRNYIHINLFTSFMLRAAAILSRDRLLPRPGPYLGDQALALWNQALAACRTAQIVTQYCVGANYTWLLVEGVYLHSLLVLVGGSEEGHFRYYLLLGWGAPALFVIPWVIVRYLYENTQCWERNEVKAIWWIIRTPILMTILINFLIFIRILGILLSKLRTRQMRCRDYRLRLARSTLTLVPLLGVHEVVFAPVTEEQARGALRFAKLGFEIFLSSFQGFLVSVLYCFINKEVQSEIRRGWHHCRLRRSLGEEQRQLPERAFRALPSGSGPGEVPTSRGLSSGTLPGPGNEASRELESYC


target: T1, human GIP receptor; experiment: cell-based or functional assay

| Binder | In vitro activity relative to native peptide (%), vs. GIP (cAMP EC50) [%] |
| --- | --- |
| {Acetyl(2-(4-imidazolyl))}-GQGTFTSDLSKQMDEERAREFIEWLLAQKPSSGAPPPSHG [trigonal agonist of SEQ ID NO: 17] | < 0.1 |
| {Acetyl(2-(4-imidazolyl))}-[Aib]QGTFTSDYSKYLDEKRQKEFVNWLLAQC (bridge 15-19) [trigonal agonist of SEQ ID NO: 86] | 0.2 |
| Y[Aib]QGTFTSDYSKALDEKAAKEFVQWLLDQHPSSGQPPPSC (bridge 16-20) [trigonal agonist of SEQ ID NO: 100] | 118 |
| {Acetyl(2-(4-imidazolyl))}-GQGTFTSDYSIQLDEIAVRDFVEWLKNGGPSSGAPPPSHG [trigonal agonist of SEQ ID NO: 14] | < 0.1 |
| {Acetyl(2-(4-imidazolyl))}-GEGTFISDYSIQLDEIAVQDFVEWLLAQKPSSGAPPPSHG [trigonal agonist of SEQ ID NO: 13] | < 0.1 |
| {Acetyl(2-(4-imidazolyl))}-[Aib]EGTFTSDYSIAMDEIHQKDFVNWLLAQKC (bridge 15-19) [trigonal agonist of SEQ ID NO: 90] | < 0.1 |
| {Acetyl(2-(4-imidazolyl))}-[Aib]QGTFTSDYSIAMDEIHQKDFVNWLLAQKC (bridge 15-19) [trigonal agonist of SEQ ID NO: 92] | 0.4 |
| {Acetyl(2-(4-imidazolyl))}-[Aib]QGTFTSDYSKYLDEKRQKEFVQWLLDTKC (bridge 15-19) [trigonal agonist of SEQ ID NO: 89] | < 0.1 |
| Y[Aib]QGTFTSDYSKALDEKAAKEFVNWLLDQHPSSGQPPPSC (bridge 16-20) [trigonal agonist of SEQ ID NO: 101] | 40.1 |
| Y[Aib]QGTFTSDYSKYLDEKRAKEFVQWLLCHHPSSGQPPPS (bridge 16-20) [trigonal agonist of SEQ ID NO: 95] | < 0.1 |
| {Acetyl(2-(4-imidazolyl))}-GQGTFTSDLSIQYDSEHQRDFIEWLKDTGPSSGAPPPSHG [trigonal agonist of SEQ ID NO: 19] | < 0.1 |
| Y[Aib]QGTFTSDYSKALDEKAAKDFVNWLLDHHPSSGQPPPSC (bridge 16-20) [trigonal agonist of SEQ ID NO: 99] | 57.7 |
| H[Aib]QGTFTSDVSKYLDGQAAQEFVAWLLAGGGPSSGAPPPSC [trigonal agonist of SEQ ID NO: 10] | < 0.1 |

target: human GLP-1 receptor (human, UniProt P43220 24-463); experiment: cell-based or functional assay

| Binder | In vitro activity relative to native peptide (%), vs. GLP-1 (cAMP EC50) [%] |
| --- | --- |
| {Acetyl(2-(4-imidazolyl))}-GQGTFTSDLSKQMDEERAREFIEWLLAQKPSSGAPPPSHG [trigonal agonist of SEQ ID NO: 17] | 0.2 |
| {Acetyl(2-(4-imidazolyl))}-[Aib]QGTFTSDYSKYLDEKRQKEFVNWLLAQC (bridge 15-19) [trigonal agonist of SEQ ID NO: 86] | 28.4 |
| Y[Aib]QGTFTSDYSKALDEKAAKEFVQWLLDQHPSSGQPPPSC (bridge 16-20) [trigonal agonist of SEQ ID NO: 100] | 42.2 |
| {Acetyl(2-(4-imidazolyl))}-GQGTFTSDYSIQLDEIAVRDFVEWLKNGGPSSGAPPPSHG [trigonal agonist of SEQ ID NO: 14] | 28 |
| {Acetyl(2-(4-imidazolyl))}-GEGTFISDYSIQLDEIAVQDFVEWLLAQKPSSGAPPPSHG [trigonal agonist of SEQ ID NO: 13] | < 0.1 |
| {Acetyl(2-(4-imidazolyl))}-[Aib]EGTFTSDYSIAMDEIHQKDFVNWLLAQKC (bridge 15-19) [trigonal agonist of SEQ ID NO: 90] | 7.4 |
| {Acetyl(2-(4-imidazolyl))}-[Aib]QGTFTSDYSIAMDEIHQKDFVNWLLAQKC (bridge 15-19) [trigonal agonist of SEQ ID NO: 92] | 0.8 |
| {Acetyl(2-(4-imidazolyl))}-[Aib]QGTFTSDYSKYLDEKRQKEFVQWLLDTKC (bridge 15-19) [trigonal agonist of SEQ ID NO: 89] | 7.1 |
| Y[Aib]QGTFTSDYSKALDEKAAKEFVNWLLDQHPSSGQPPPSC (bridge 16-20) [trigonal agonist of SEQ ID NO: 101] | 23.2 |
| Y[Aib]QGTFTSDYSKYLDEKRAKEFVQWLLCHHPSSGQPPPS (bridge 16-20) [trigonal agonist of SEQ ID NO: 95] | 2.1 |
| {Acetyl(2-(4-imidazolyl))}-GQGTFTSDLSIQYDSEHQRDFIEWLKDTGPSSGAPPPSHG [trigonal agonist of SEQ ID NO: 19] | < 0.1 |
| Y[Aib]QGTFTSDYSKALDEKAAKDFVNWLLDHHPSSGQPPPSC (bridge 16-20) [trigonal agonist of SEQ ID NO: 99] | 20.9 |
| H[Aib]QGTFTSDVSKYLDGQAAQEFVAWLLAGGGPSSGAPPPSC [trigonal agonist of SEQ ID NO: 10] | 46 |

target: human GCG receptor (human, UniProt P47871 26-477); experiment: cell-based or functional assay
Sequence (P47871 26-477): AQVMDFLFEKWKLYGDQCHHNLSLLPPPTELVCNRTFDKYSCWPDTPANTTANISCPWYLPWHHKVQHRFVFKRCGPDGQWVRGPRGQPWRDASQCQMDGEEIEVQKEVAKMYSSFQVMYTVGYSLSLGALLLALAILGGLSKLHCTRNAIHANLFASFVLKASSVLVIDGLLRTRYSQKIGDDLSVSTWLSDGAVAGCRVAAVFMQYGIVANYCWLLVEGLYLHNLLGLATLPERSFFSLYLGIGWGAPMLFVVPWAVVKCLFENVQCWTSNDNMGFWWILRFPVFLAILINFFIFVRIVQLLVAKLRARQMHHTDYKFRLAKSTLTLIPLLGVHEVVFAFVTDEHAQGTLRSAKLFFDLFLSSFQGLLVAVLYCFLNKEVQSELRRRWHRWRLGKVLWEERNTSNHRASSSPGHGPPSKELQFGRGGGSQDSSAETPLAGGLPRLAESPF

| Binder | In vitro activity relative to native peptide (%), vs. Glucagon (cAMP EC50) [%] |
| --- | --- |
| {Acetyl(2-(4-imidazolyl))}-GQGTFTSDLSKQMDEERAREFIEWLLAQKPSSGAPPPSHG [trigonal agonist of SEQ ID NO: 17] | < 0.1 |
| {Acetyl(2-(4-imidazolyl))}-[Aib]QGTFTSDYSKYLDEKRQKEFVNWLLAQC (bridge 15-19) [trigonal agonist of SEQ ID NO: 86] | 0.4 |
| Y[Aib]QGTFTSDYSKALDEKAAKEFVQWLLDQHPSSGQPPPSC (bridge 16-20) [trigonal agonist of SEQ ID NO: 100] | 12.7 |
| {Acetyl(2-(4-imidazolyl))}-GQGTFTSDYSIQLDEIAVRDFVEWLKNGGPSSGAPPPSHG [trigonal agonist of SEQ ID NO: 14] | < 0.1 |
| {Acetyl(2-(4-imidazolyl))}-GEGTFISDYSIQLDEIAVQDFVEWLLAQKPSSGAPPPSHG [trigonal agonist of SEQ ID NO: 13] | < 0.1 |
| {Acetyl(2-(4-imidazolyl))}-[Aib]EGTFTSDYSIAMDEIHQKDFVNWLLAQKC (bridge 15-19) [trigonal agonist of SEQ ID NO: 90] | < 0.1 |
| {Acetyl(2-(4-imidazolyl))}-[Aib]QGTFTSDYSIAMDEIHQKDFVNWLLAQKC (bridge 15-19) [trigonal agonist of SEQ ID NO: 92] | < 0.1 |
| {Acetyl(2-(4-imidazolyl))}-[Aib]QGTFTSDYSKYLDEKRQKEFVQWLLDTKC (bridge 15-19) [trigonal agonist of SEQ ID NO: 89] | 0.7 |
| Y[Aib]QGTFTSDYSKALDEKAAKEFVNWLLDQHPSSGQPPPSC (bridge 16-20) [trigonal agonist of SEQ ID NO: 101] | 13.9 |
| Y[Aib]QGTFTSDYSKYLDEKRAKEFVQWLLCHHPSSGQPPPS (bridge 16-20) [trigonal agonist of SEQ ID NO: 95] | 0.4 |
| {Acetyl(2-(4-imidazolyl))}-GQGTFTSDLSIQYDSEHQRDFIEWLKDTGPSSGAPPPSHG [trigonal agonist of SEQ ID NO: 19] | < 0.1 |
| Y[Aib]QGTFTSDYSKALDEKAAKDFVNWLLDHHPSSGQPPPSC (bridge 16-20) [trigonal agonist of SEQ ID NO: 99] | 14.9 |
| H[Aib]QGTFTSDVSKYLDGQAAQEFVAWLLAGGGPSSGAPPPSC [trigonal agonist of SEQ ID NO: 10] | < 0.1 |
